From paper PMC13583000 (Nature Communications, 2026)

Biological target: the molecule itself
Experiment: SEC

B1: Corynebacterium glutamicum citrate synthase with a C-terminal Strep tag (CgCS-Strep) (enzyme)
chain: MFERDIVATDNNKAVLHYPGGEFEMDIIEASEGNNGVVLGKMLSETGLITFDPGYVSTGSTESKITYIDGDAGILRYRGYDIADLAENATFNEVSYLLINGELPTPDELHKFNDEIRHHTLLDEDFKSQFNVFPRDAHPMATLASSVNILSTYYQDQLNPLDEAQLDKATVRLMAKVPMLAAYAHRARKGAPYMYPDNSLNARENFLRMMFGYPTEPYEIDPIMVKALDKLLILHADHEQNCSTSTVRMIGSAQANMFVSIAGGINALSGPLHGGANQAVLEMLEDIKSNHGGDATEFMNKVKNKEDGVRLMGFGHRVYKNYDPRAAIVKETAHEILEHLGGDDLLDLAIKLEEIALADDYFISRKLYPNVDFYTGLIYRAMGFPTDFFTVLFAIGRLPGWIAHYREQLGAAGNKINRPRQVYTGNESRKLVPREER
  stoichiometry N: 2
